Values quoted from earlier work in patent publication US20200276303A1, “Combination Therapies and Uses for Treatment of Demyelinating Disorders” (Biogen MA Inc., priority 2012, published 2020).

B1: Daclizumab: therapeutic humanized monoclonal antibody to the alpha subunit of the IL-2 receptor of T cells (antibody, chains of the INN, looked up, V domains shown)
VH: QVQLVQSGAEVKKPGSSVKVSCKASGYTFTSYRMHWVRQAPGQGLEWIGYINPSTGYTEYNQKFKDKATITADESTNTAYMELSSLRSEDTAVYYCARGGGVFDYWGQGTLVTVSS
VL: DIQMTQSPSTLSASVGDRVTITCSASSSISYMHWYQQKPGKAPKLLIYTTSNLASGVPARFSGSGSGTEFTLTISSLQPDDFATYYCHQRSTYPLTFGQGTKVEVK

Conditions: for Disease activity measured by brain lesions (MRI scans) and relapse rate compared to placebo: Phase 2 clinical studies in relapse remitting MS

Row | Molecule | Disease activity measured by brain lesions (MRI scans) and relapse rate compared to placebo | also measured
1 | alemtuzumab: antibody against CD52 | – | Phase III studies comparing with Rebif (high-dose subcutaneous interferon beta-1a) (patients with relapsing-remitting MS (RRMS)): positive results
2 | ocrelizumab: antibody against CD20 | statistically significant reduction | –
3 | rituximab: antibody against CD20 | statistically significant reduction | –
4 | B1 | – | Reducing lesions and improving clinical scores (patients with multiple sclerosis not controlled with interferon): effective
